Consider one molecule from patent US20240424125A1 (Zymeworks, published 2024).

Assay [1] has as its target T1, human FRα on cells (human, UniProt P15328 25-234).
T1 construct: Transiently expressed on HEK293-6e, CHO-S or HEK293 microarray cells, or endogenous on JEG-3, HEC-1-A, IGROV-1, OVCAR-3, H2110, KB-HeLa and T-47D cells; also called human folate receptor alpha; FOLR1
In words: apparent Kd, flow cytometry, CHO-S cells transiently expressing human FRα (same experiment as Table 15.1, more digits). How it is done: (§1) Briefly, CHO-S cells were transfected for −24 hours to transiently express human or cynomolgus monkey FRα, 1 ug DNA per 1 million cells. Following transfection, cells were seeded at 50,000 cells/well in V-bottom 96-well plates and treated with antibody for 24 hours at 4° C. to prevent internalization. […] Following incubation and washing, fluorescence was detected by flow cytometry on a BD LSRFortessa™ Cell Analyzer (BD Biosciences, Franklin Lake, NJ).

Assay [2] concerns the target T2, FOLR2 on HEK293-6e cells (human, UniProt P14207 17-230).
T2 construct: whole, on cells; also called human folate receptor beta (FOLR2)
As to the kind of experiment: flow cytometry on transfected HEK293-6e cells. How it is done:
(§2) FRα, FOLR2 and FOLR4 binding was assessed through flow cytometry using HEK293 transfected cells. FOLR3 binding was assessed through ELISA as FOLR3 is a soluble protein. Control anti-FOLR2 (mouse anti-human FOLR2; Nordic BioSite AB, Taby, Sweden; Cat. No. AFC-4544-2), anti-FOLR3 (mouse anti-human FOLR3; LS Bio, Seattle, WA; Cat. No. LS-C125621) and anti-FOLR4 (mouse anti-His DyLight™ 650; Novus Biologicals, Littleton, CO; Cat. No. NBP2-31055C) antibodies were included in these experiments.
(§3) FRα, FOLR2 and FOLR4 binding: Briefly, HEK293-6e cells were transfected for ˜24 hours to transiently express human FRα (Cat. No. 13420), FOLR2 (Cat. No. 13481) and FOLR4 (Cat. No. 13483) (all from GenScript Biotech, Piscataway, NJ), 1 ug DNA per 1 million cells. Following transfection, 50,000 cells were seeded in V-bottom 96-well plates and incubated with 50 nM primary antibody for 45 min under standard culturing conditions. […] Following incubation and washing, fluorescence was detected by flow cytometry on a BD LSRFortessa™ Cell Analyzer (BD Biosciences, Franklin Lake, NJ) with 1,000 minimum events collected per well.

Assay [3] has as its target T3, FOLR4 on HEK293-6e cells (human, UniProt A6ND01 20-228).
T3 construct: whole, on cells; also called human folate receptor delta (FOLR4)
In words: flow cytometry on transfected HEK293-6e cells. The protocol:
as §2, §3

In assay [4] the target is T1, human FRα on cells. As to the kind of experiment: apparent Kd, flow cytometry on HEC-1-A cells (endogenous FRα), 24 h at 4°C. How it is done: (§4) Briefly, cells were seeded at 50,000 cells/well in V-bottom 96-well plates and treated with antibody for 24 hours at 4° C. to prevent internalization. […] Following incubation and washing, fluorescence was detected by flow cytometry on a BD LSRFortessa™ Cell Analyzer (BD Biosciences, Franklin Lake, NJ) with 1,000 minimum events collected per well. AF647/APC-A GeoMean (fluorescence signal geometric mean, proportional to anti-Human AF647 binding) in live cell population was plotted using GraphPad Prism Version 9 (GraphPad Software, San Diego, CA).

Assay [5] has as its target T1, human FRα on cells. In words: flow cytometry, HEK293-6e cells transiently expressing the target, 50 nM antibody. How it is done:
as §3
(§5) By flow cytometry, live singlet cell population was gated using FlowJo™ v8 software (RD Biosciences, Franklin Lake, NJ), and AF647 GeoMean and % positive binding was determined in this population for each antibody.

Assay [6] concerns the target T2, FOLR2 on HEK293-6e cells. The description is as above. How it is done: as §3, §5
The target in assay [7] is T3, FOLR4 on HEK293-6e cells. Described as above. How it is done:
as §3, §5

For assay [8], the target named is T4, cynomolgus monkey FRα on cells (cynomolgus monkey, UniProt P15328 29-234 (human entry)).
T4 construct: Transiently expressed on CHO-S cells; also called Cyno FRα; cynomolgus FRα
In words: apparent Kd, flow cytometry, CHO-S cells transiently expressing cynomolgus monkey FRα, 24 h at 4°C. The protocol: as §1

For assay [9], the target named is T1, human FRα on cells. In words: apparent Kd, flow cytometry on JEG-3 cells (endogenous FRα), 24 h at 4°C. How it is done:
as §4

Assay [10] deals with T5, FOLR3, commercial purified protein (R&D Systems Cat. No. 5319-FR) (human, UniProt P41439 23-245, limits assumed).
T5 construct: Coated on the ELISA plate; also called folate receptor gamma (FOLR3)
As to the kind of experiment: ELISA on coated FOLR3 protein. How it is done:
FOLR3 binding: ELISA 96-well plate was coated with commercial purified FOLR3 protein (R&D Systems, Inc., Minneapolis, MN; Cat. No. 5319-FR) for 1 hr at 37° C. The plate was blocked with 1% milk in PBS pH 7.4 for 1 hr at RT. Following blocking, primary antibodies were added at 7 nM for 1 hr at RT. […] Plates were developed using tetramethylbenzidine (TMB) and HCl was used to stop reaction. Absorbance was read at 450 nm using a Synergy™ H1 microplate reader (BioTek Instruments, Winooski, VT).

Assay [11] has as its target T1, human FRα on cells. In words: apparent Kd, flow cytometry, CHO-S cells transiently expressing human FRα, 24 h at 4°C. The protocol: as §1
The target of assay [12] is T4, cynomolgus monkey FRα on cells. In words: apparent Kd, flow cytometry, CHO-S cells transiently expressing cynomolgus monkey FRα (same experiment as Table 15.1, more digits). The protocol: as §1

T1 sequence (P15328 25-234 limits assumed): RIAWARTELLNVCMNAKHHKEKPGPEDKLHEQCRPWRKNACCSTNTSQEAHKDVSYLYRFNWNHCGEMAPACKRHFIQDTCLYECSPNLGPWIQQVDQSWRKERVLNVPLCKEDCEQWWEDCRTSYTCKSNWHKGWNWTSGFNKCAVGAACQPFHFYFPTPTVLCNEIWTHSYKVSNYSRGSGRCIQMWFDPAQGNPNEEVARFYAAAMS
T3 sequence (A6ND01 20-228): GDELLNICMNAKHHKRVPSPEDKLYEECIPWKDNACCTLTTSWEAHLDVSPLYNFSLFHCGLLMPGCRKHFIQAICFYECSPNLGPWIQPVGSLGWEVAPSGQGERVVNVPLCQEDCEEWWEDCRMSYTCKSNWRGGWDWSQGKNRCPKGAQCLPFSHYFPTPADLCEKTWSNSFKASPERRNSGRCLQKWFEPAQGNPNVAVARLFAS
T2 sequence (P14207 17-230): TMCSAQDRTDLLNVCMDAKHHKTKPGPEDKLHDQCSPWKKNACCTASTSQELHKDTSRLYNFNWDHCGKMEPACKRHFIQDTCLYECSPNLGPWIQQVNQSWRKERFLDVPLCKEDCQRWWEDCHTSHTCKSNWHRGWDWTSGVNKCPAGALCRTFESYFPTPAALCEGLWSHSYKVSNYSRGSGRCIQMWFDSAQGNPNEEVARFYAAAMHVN
T4 sequence (P15328 other isoform, or with tags, fused parts or gaps limits assumed): as the sequence (P15328 25-234 limits assumed) above, with I2T, A3T, W4R, R37K, A146P, H171Y counted along it
T5 sequence (P41439 23-245 limits assumed): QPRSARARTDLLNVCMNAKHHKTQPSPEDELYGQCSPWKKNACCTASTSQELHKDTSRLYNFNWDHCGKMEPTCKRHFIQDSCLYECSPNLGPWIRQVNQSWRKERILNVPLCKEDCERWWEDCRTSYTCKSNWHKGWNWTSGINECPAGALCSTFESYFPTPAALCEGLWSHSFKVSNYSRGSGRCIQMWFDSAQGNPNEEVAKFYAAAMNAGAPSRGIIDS

B1: v23924 (antibody, human IgG1, kappa, V domains shown)
VH: QSVKESEGGLFKPTDTLTLTCTVSGFSLSSYGVSWVRQAPGNGLEWIGAVNSGGSAYYANWAKSRSTITRNTNLFTVTLKMTSLAVADTATYFCARSGSGYPMDYLAIWGPGTLVTVSS
VL: AYDMTQTPASVEVAVGGTVTIKCQASQSIGDWLAWYQQKPGQPPRLLIYEASTLASGVPSRFSGSGSGTQFTLTISGVECADAATYYCQQGYGRSNVDNIFGGGTEVVVKR
notes: Rabbit-human chimeric full-size antibody, human IgG1/kappa, HomoFc; also called variant v23924; parental chimeric anti-FRα antibody
B1: the Kd is 0.0839 nM in assay [1]; 0.05 nM in assay [4]; 0.12 nM in assay [8]; 0.32 nM in assay [9]; 0.08 nM in assay [11]; 0.122 nM in assay [12]. Also, the binding result in assay [2] is “no binding (tested: 50 nM)”; in assay [3], “no binding (tested: 50 nM)”; in assay [10], “no binding (tested: 7 nM)”. Moreover, the “% Positive Binding, singlet population” value in [5] was 71%; in assay [6], 0%; in assay [7], 0%. Besides, the “AF647/DyLight650 GeoMean, singlet population” value in assay [5] was found to be 7660; in assay [6], 7; in assay [7] it was 27.
